Source: paper PMC7090928

Columns and labels:
mCherry-EB3 full length [1] = target: mCherry-EB3 full length (UniProt Q9UPY8)
mCherry-EB3 full length [2] = target: mCherry-EB3 full length (UniProt Q9UPY8); remark: listed apart in the source
mCherry-EB3 full length [3] = target: mCherry-EB3 full length (UniProt Q9UPY8); test: fluorescence correlation spectroscopy; 15 nM His-GFP-MTLS and 200 nM EB3 on dynamic MTs, no GUVs; peak intensity at passing MT tips against solution; 60 sites assumed in 6 dimer lengths, 1:1 EB3:MTLS assumed
[4] = target: dynamic microtubules (porcine brain tubulin) (porcine); test: speed of membrane tube spreading on microtubules compared with a one-step model; His-GFP-MTLS bound to GUV membrane, no EB3; the attachment rate was chosen by comparing model curves for 8, 16 and 26 s^-1 with experimental data
Chain of dynamic microtubules (porcine brain tubulin) (porcine) (P68363 whole entry, chain 1 of 2): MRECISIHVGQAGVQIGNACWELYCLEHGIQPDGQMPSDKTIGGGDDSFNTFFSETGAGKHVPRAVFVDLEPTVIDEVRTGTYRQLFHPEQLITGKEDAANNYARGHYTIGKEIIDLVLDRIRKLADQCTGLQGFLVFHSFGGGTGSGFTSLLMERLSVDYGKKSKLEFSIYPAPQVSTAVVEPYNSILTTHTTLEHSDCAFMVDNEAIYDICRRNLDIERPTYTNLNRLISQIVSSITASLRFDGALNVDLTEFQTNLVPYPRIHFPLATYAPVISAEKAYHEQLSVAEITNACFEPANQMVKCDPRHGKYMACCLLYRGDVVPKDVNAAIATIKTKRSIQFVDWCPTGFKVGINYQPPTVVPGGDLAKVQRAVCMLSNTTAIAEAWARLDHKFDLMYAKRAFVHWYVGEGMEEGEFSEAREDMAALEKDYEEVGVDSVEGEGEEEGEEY
Chain of dynamic microtubules (porcine brain tubulin) (porcine) (P02554 whole entry, chain 2 of 2, further chain): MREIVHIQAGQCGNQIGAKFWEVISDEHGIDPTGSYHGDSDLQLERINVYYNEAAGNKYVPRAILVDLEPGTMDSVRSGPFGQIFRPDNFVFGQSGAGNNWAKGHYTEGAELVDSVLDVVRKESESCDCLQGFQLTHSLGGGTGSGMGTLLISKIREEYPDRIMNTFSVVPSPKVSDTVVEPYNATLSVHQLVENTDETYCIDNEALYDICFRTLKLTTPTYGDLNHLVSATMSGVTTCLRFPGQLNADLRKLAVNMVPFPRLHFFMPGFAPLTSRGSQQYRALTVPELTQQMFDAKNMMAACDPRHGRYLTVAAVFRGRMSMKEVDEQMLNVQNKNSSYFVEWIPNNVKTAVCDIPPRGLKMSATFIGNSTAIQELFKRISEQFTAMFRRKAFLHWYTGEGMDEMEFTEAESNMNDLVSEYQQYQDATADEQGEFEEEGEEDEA

mCherry-EB3 full length [5] = target: mCherry-EB3 full length (UniProt Q9UPY8); test: single-molecule TIRF microscopy (dwell times and binding events on microtubules); 0.12 nM His-GFP-MTLS, 50 ms/frame, 200 nM mCherry-EB3 as tracer of plus ends; dwell times fitted with an exponential; MT tip taken as 200 nm long

Chain of UniProt Q9UPY8 (Q9UPY8 whole entry): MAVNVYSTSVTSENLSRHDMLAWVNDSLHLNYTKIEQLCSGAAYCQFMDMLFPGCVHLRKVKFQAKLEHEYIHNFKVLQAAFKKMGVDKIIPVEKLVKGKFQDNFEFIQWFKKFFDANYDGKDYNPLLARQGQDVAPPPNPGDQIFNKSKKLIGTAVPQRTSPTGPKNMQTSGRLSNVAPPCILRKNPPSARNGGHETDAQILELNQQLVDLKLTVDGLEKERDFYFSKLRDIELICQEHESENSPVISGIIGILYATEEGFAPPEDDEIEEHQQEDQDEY

duration of the first positive displacement of Bio-mCherry-MTLS-coated beads at growing MT tips with 100 nM EB3 (most events shorter than 1 s without EB3) (mCherry-EB3 full length [1]) [s] | tubulation of GUVs on dynamic MTs at 200 nM EB3 and 15 nM His-GFP-MTLS (mCherry-EB3 full length [2]) [%] | maximum probability of being bound to the EB3-bound MT tip (mCherry-EB3 full length [3]) | k on-m (estimated attachment rate of membrane-bound His-GFP-MTLS to the MT lattice, no EB3) [4] [s⁻¹] | fold association rate at MT tips (with 200 nM mCherry-EB3) over the on-rate at the MT shaft (mCherry-EB3 full length [5]) [fold] | Substance
15 |  |  |  |  | Bio-mCherry-MTLS (from UniProt Q03001 7528-7570)
 | 90 | 0.46 | 16 | 2.5 | His-GFP-MTLS (from UniProt Q03001 7528-7570)
